Patent publication US20240190960A1 (Chugai, published 2024)

B1: CLA0334 Fab fragment (from CLA0334VH-F760mnP17/CLA0334VL-k0C) (Fab, V domains shown)
VH: QEQLEESGGDLVKPEGSLTLTCTASGFSLSVSYWICWVRQAPGKGLEWIACIYAGSTGSTWYANWAKGRFTISKTSSTTVTLQMTSLTAADTATYFCARDSGWNAFDLWGPGTLVTVSS
VL: DVVMTQTPASVSAAVGGTVTIKCQASQSIGSNLAWYQQKSGHPPNLLIYEASGLASGVPLRFSGSGSGTQFTLTISDLECADAATYYCQSYYYSPSVSVHYAFGGGTEVVVKR
notes: Fab prepared from the full antibody with the Pierce Fab Preparation Kit; also called clamping antibody CLA0334
B2: IC17 one arm (antibody, human IgG1, kappa, L234A L235A, N297A)
heavy chain (IC17Hdk-pE22Hh): QVQLQQSGPQLVRPGASVKISCKASGYSFTSYWMHWVNQRPGQGLEWIGMIDPSYSETRLNQKFKDKATLTVDKSSSTAYMQLSSPTSEDSAVYYCALYGNYFDYWGQGTTLTVSSASTKGPSVFPLAPSSKSTSGGTAALGCLVKDYFPEPVTVSWNSGALTSGVHTFPAVLQSSGLYSLSSVVTVPSSSLGTQTYICNVNHKPSNTKVDKKVEPKSCDKTHTCPPCPAPEAAGGPSVFLFPPKPKDTLMISRTPEVTCVVVDVSHEDPEVKFNWYVDGVEVHNAKTKPREEQYASTYRVVSVLTVLHQDWLNGKEYKCKVSNKALPAPIEKTISKAKGQPREPQVYTLPPSRCELTKNQVSLSCAVKGFYPSDIAVEWESNGQPENNYKTTPPVLDSDGSFFLVSKLTVDKSRWQQGNVFSCSVMHEALHNHYTQKSLSLSPDYKDDDDK
light chain (IC17L-k0): DIQMTQSSSSFSVSLGDRVTITCKASEDIYNRLAWYQQKPGNAPRLLISGATSLETGVPSRFSGSGSGKDYTLSITSLQTEDVATYYCQQYWSTPYTFGGGTKLEVKRTVAAPSVFIFPPSDEQLKSGTASVVCLLNNFYPREAKVQWKVDNALQSGNSQESVTEQDSKDSTYSLSSTLTLSKADYEKHKVYACEVTHQGLSSPVTKSFNRGEC
antibody fragment having no variable region (Kn010): not shown
notes: also called negative control anti-KLH antibody IC17 one arm (IC17Hdk-pE22Hh/IC17L-k0//Kn010)

Columns and labels:
[1] = target: T1, CD3ε epitope-fused CE115HA146 (CE115HAGP13-rabIgG/GLS3000-rabk); assay: SPR (Biacore T200), ligand captured on protein A, Fab 0-400 nM as analyte, 37 C
T1 construct: stands for the antigen/antibody complex; Rabbit constant regions; also called CE115HAPG13
Protocol: (§1) SuRe protein A (GE Healthcare) prepared at 25 μg/mL using Acetate4.5 (GE Healthcare) was immobilized on sensor chip CM4 at approximately 1000 RU per flow cell using an amine coupling kit (GE Healthcare).
(§2) The sensor chip was regenerated by passing Glycine1.5 and 25 mM NaOH, each at a flow rate of 30 μL/min for 15 seconds. The dissociation constant KD (M) was calculated based on the association rate constant ka (1/Ms) and the dissociation rate constant kd (1/s), which are kinetic parameters calculated from the sensorgram obtained by the measurement. Biacore T200 Evaluation Software (GE Healthcare) was used for calculation of each parameter.

[2] = target: T2, CD3ε epitope-fused CE115HA056 (CE115HAGP12-rabIgG/GLS3000-rabk); assay: as above
T2 construct: rabbit constant regions; also called CE115HAPG12
Protocol: as §1, §2

[3] = target: T3, Biotinylated human CD3εδ heterodimer (Fc-fused human CD3ε / Fc-fused human CD3δ) (human, biotin on the Avi tag (BirA)); assay: BLI (Octet RED384); CD3εδ on streptavidin sensor, IC17 one arm for 120 s, then 1 µM Fab in HBS-EP+ for 120 s
T3 chain 1: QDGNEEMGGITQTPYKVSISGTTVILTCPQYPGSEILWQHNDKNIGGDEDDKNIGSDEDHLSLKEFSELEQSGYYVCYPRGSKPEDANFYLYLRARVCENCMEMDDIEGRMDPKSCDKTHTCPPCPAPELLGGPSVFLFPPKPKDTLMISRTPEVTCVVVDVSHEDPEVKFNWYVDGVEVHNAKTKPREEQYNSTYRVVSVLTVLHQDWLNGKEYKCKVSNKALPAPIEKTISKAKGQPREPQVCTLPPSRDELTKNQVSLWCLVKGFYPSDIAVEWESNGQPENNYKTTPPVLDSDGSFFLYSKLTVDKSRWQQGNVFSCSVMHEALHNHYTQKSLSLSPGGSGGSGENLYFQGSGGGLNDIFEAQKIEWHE
T3 chain 2: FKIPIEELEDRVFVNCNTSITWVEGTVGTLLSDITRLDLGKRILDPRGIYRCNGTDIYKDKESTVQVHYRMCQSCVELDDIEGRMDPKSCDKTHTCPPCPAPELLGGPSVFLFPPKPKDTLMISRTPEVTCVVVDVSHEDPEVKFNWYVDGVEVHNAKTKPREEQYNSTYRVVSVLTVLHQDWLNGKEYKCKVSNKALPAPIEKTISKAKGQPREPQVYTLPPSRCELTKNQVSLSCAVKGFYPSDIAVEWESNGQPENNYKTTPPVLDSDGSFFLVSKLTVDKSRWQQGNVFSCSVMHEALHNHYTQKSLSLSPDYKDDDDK
Protocol: (§3) Using an Octet RED 384 (ForteBio), a streptavidin sensor (ForteBio) was reacted with CD3εδ prepared at 0.2 μM in ACES at 37° C. for 300 seconds. […] Response values were extracted every three seconds, and graphs were depicted using Microsoft Excel 2013 (Microsoft).

[4] = target: CD3 antibody CE115HA146 (CE115HA146-F760mnP17/GLS3000-k0); assay: SPR (Biacore), 37 C; ligand antibody captured on SuRe protein A chip (1000 RU), Fab as analyte at 100 nM for 180 s; amount of binding per 1 RU of ligand
Protocol: as §1
(§4) First, to evaluate the binding specificity of the clamping antibodies, a ligand was reacted at 37° C. for 60 seconds at a flow rate of 10 μL/min to capture 1000 RU, and an analyte prepared at 100 nM was allowed to act for 180 seconds at a flow rate of 30 μL/min, and the amount of binding was measured.

[5] = target: T4, negative control IC17 (IC17Hdk-F760mnP17/IC17L-k0); assay: as above
T4 construct: also called anti-KLH antibody
Protocol: as §1, §4

[6] = target: T5, CD3ε epitope-fused GPC3 antibody (hGC33VHGP01-rabCH1hG1m/hGC33VL-rabk); assay: as above
T5 construct: control for recognition of the peptide alone
Protocol: as §1, §4

[7] = target: CD3 antibody CE115HA000 (CE115HA000-F760mnP17/GLS3000-k0); assay: as above
Protocol: as §1, §4

[8] = target: CD3 antibody CE115HA056 (CE115HA056-F760mnP17/GLS3000-k0); assay: as above
Protocol: as §1, §4

[9] = target: T3, Biotinylated human CD3εδ heterodimer …; assay: BLI (Octet RED384), 37 C; biotinylated CD3εδ on streptavidin sensor, one-arm antibody in solution for 120 s
Protocol: as §3

Sequence of CD3 antibody CE115HA000 (CE115HA000-F760mnP17/GLS3000-k0) (VH, as listed by the source, chain 1 of 2): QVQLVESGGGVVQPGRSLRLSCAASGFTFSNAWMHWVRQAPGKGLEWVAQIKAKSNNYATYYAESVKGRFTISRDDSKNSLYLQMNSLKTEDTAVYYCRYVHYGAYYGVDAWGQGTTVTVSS
Sequence of CD3 antibody CE115HA000 (CE115HA000-F760mnP17/GLS3000-k0) (VL, as listed by the source, chain 2 of 2): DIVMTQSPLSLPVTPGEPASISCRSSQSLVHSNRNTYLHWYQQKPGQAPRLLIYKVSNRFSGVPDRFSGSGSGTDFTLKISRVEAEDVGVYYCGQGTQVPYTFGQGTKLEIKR
T1 sequence (heavy, as listed by the source, chain 1 of 2): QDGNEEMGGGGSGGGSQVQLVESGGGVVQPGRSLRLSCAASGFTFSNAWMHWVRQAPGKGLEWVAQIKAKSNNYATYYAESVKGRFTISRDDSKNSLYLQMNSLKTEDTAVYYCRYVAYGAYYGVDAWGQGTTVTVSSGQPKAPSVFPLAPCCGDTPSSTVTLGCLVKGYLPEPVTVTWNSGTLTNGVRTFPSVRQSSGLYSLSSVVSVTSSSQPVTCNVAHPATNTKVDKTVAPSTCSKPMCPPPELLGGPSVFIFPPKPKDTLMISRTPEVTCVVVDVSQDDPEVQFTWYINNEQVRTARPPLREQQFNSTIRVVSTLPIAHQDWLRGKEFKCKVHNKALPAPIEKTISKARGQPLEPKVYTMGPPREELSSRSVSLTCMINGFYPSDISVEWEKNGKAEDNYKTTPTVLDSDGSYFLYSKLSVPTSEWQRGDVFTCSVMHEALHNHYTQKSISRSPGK
T1 sequence (light, as listed by the source, chain 2 of 2): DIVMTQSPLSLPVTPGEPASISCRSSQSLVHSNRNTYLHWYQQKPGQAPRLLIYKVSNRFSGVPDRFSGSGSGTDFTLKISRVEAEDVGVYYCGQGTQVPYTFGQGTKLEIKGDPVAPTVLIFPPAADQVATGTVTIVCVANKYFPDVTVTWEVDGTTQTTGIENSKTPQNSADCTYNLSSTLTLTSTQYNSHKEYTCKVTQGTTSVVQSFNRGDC
T2 sequence (heavy, as listed by the source, chain 1 of 2): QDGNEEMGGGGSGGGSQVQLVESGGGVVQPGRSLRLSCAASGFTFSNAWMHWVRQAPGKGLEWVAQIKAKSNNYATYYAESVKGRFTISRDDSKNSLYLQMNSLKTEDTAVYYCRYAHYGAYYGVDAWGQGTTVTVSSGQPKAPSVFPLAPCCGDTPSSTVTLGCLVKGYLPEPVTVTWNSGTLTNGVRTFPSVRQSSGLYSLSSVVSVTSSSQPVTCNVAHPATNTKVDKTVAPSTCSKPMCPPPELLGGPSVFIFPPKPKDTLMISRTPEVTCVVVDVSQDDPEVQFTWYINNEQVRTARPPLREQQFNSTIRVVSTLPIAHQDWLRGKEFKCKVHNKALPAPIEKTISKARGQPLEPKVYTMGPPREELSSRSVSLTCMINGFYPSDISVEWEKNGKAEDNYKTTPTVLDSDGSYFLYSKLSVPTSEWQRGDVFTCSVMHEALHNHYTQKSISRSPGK
T2 sequence (light, as listed by the source, chain 2 of 2): as the sequence (light, as listed by the source, chain 2 of 2) above
Sequence of CD3 antibody CE115HA146 (CE115HA146-F760mnP17/GLS3000-k0) (heavy, as listed by the source): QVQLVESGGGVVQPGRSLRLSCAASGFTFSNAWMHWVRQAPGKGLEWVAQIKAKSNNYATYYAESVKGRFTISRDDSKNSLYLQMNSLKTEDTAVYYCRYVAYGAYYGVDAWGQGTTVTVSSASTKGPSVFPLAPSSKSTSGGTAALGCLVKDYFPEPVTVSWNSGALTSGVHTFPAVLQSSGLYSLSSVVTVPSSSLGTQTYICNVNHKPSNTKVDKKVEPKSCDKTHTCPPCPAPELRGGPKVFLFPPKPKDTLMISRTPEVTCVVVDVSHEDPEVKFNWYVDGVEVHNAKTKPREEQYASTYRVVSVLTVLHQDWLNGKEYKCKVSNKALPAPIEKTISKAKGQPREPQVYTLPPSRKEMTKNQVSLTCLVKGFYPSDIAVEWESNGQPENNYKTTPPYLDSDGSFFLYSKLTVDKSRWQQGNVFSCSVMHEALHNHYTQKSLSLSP
Sequence of CD3 antibody CE115HA056 (CE115HA056-F760mnP17/GLS3000-k0) (heavy, as listed by the source): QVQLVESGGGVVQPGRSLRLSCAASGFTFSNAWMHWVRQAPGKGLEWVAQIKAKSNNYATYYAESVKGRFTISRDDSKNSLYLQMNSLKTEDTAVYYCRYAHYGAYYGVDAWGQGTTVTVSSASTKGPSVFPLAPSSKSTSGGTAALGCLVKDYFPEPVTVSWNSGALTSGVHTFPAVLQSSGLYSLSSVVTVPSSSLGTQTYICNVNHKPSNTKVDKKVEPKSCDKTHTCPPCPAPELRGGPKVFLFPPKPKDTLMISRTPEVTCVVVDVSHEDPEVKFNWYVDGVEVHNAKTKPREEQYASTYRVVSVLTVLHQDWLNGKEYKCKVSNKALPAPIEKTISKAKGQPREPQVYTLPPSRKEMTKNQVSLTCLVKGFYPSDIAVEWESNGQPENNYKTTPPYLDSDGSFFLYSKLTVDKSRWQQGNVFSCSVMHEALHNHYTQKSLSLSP
T5 sequence (VH, as listed by the source, chain 1 of 2): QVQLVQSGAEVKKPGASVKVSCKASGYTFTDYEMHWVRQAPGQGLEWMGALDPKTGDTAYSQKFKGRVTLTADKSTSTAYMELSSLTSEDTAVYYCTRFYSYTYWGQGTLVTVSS
T5 sequence (VL, as listed by the source, chain 2 of 2): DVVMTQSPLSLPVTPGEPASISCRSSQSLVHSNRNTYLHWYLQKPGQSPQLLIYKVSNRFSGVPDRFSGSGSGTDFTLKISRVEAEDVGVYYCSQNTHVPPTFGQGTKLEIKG

| Binder | Kd [1] [nM] | Kd [2] [nM] | binding result [3] | binding result [4] | binding result [5] | binding result [6] | binding result [7] | binding result [8] | binding result [9] |
| --- | --- | --- | --- | --- | --- | --- | --- | --- | --- |
| B1 | 150 | 110 | no binding (tested: 1 µM) | no binding (tested: 100 nM) | no binding (tested: 100 nM) | no binding (tested: 100 nM) | no binding (tested: 100 nM) | no binding (tested: 100 nM) |  |
| B2 |  |  |  |  |  |  |  |  | no binding |
